{
  "source": "patent US9458189B2",
  "about": "“Ligation of stapled polypeptides” (President and Fellows of Harvard College, priority 2008, dated 2016)",
  "assay": "Circular dichroism of Max basic region peptides",
  "type": "physicochemical",
  "conditions": "circular dichroism wavelength scans; 100 uM peptide in water",
  "procedure": "Each of the synthesized peptides were purified by HPLC and biochemically characterized. Each peptide was diluted in water to a final concentration of 100 uM using the extinction coefficient of FITC at 495 nm in 50 mM NaH2PO4, pH 8.0. […] One peptide, i, i+4 version 1, was chosen to be synthesized so as to contain a C-terminal thioester. The peptide was synthesized using t-Boc chemistry on 3-S-trityl-mercaptopropionyl resin. The peptide was purified by HPLC and the desired product was confirmed by LC/MS analysis.",
  "note": "Primed or numbered codes have the meaning given here. No end group written: not given here. *: point of attachment. FITC = O=C1OC2(c3ccc(O)cc3Oc3cc(O)ccc32)c2ccc(NC(=S)*)cc21; PEG3′ = not defined here",
  "data": [
    {"substance": "unmodified basic region peptide: unmodified DNA binding basic region of Max (RAHHNALERKRR, SEQ ID NO: 2) with N-terminal PEG-3 linker and FITC ({FITC-PEG3′}-RAHHNALERKRR)", "values": [
      {"measurement": "CD profile (secondary structure in solution)", "value": "disordered in solution"}
    ]}
  ]
}
